# According to patent US20180037651A1:
# Target: GPRC5D (MM.1R cells) (UniProt Q9NZD1)
# Experiment: FACS cell binding; MM.1R cells
substance,measurement,value
Fab6300,EC50,122 nM
